# Laboratory results reported in publication PMC4303294 (Biochemistry, 2014).
# Target: the molecule itself
# Experiment: SEC
protein,measurement,value
"nitrophorin 4 (NP4) reconstituted with the symmetrical hemin, 2,4-dimethyldeuterohemin (natural protein, Rhodnius prolixus, UniProt Q94734 22-205, looked up) ACTKNAIAQTGFNKDKYFNGDVWYVTDYLDLEPDDVPKRYCAALAAGTASGKLKEALYHYDPKTQDTFYDVSELQVESLGKYTANFKKVDKNGNVKVAVTAGNYYTFTVMYADDSSALIHTCLHKGNKDLGDLYAVLNRNKDAAAGDKVKSAVSAATLEFSKFISTKENNCAYDNDSLKSLLTK",stoichiometry N,2
